Laboratory results from US20180334510A1 (BRANDEIS UNIVERSITY, published 2018).
Where a chain is given by its changes, count along the chain named. Like-named read-outs stand apart in the source and are kept apart here. One block for each binder: values may come before it.

Legend:
Y199K = target: T1, Y199K; experiment: yeast display, single point with Y199K Aurora A, mean fluorescence
T1 construct: also called Y199K mutant Aurora A; Y199K Aurora A hotspot mutant
T1 chain: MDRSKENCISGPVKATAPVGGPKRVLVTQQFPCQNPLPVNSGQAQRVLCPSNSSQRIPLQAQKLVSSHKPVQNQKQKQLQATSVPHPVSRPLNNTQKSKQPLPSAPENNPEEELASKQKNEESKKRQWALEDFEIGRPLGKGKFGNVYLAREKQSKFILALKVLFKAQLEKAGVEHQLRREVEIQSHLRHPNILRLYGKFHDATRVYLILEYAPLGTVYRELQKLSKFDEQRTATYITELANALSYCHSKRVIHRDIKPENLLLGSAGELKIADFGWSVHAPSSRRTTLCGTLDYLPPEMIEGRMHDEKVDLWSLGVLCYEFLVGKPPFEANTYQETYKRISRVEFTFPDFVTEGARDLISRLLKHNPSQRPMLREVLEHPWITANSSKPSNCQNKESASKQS

Aurora A kinase [1] = target: T2, Aurora A kinase (human, UniProt O14965 122-403, limits assumed); experiment: isothermal titration calorimetry with dephosphorylated Aurora A (deP AurA); design: dS: unit not given here
T2 construct: also called AurA; deP AurA
T2 sequence: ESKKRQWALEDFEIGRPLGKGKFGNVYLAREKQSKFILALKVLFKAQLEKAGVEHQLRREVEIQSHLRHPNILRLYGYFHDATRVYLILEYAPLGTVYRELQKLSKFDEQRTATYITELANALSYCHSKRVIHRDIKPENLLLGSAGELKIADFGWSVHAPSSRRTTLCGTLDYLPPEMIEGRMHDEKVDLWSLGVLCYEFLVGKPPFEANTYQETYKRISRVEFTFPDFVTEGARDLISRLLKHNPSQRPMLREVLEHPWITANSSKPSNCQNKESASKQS

Aurora A kinase [2] = target: T2, Aurora A kinase; experiment: yeast display titration of the clone with wild type Aurora A, mean fluorescence
Aurora A kinase [3] = target: T2, Aurora A kinase; experiment: isothermal titration calorimetry with dephosphorylated Aurora A (deP AurA)
Aurora A kinase [4] = target: T2, Aurora A kinase; experiment: as above; remark: listed apart in the source
Y199H = target: T3, Y199H; experiment: yeast display, single point with Y199H Aurora A, mean fluorescence
T3 construct: also called Y199H mutant Aurora A; Y199H Aurora A hotspot mutant
T3 chain: T1 chain with K199H

Aurora A kinase [5] = target: T2, Aurora A kinase; experiment: isothermal titration calorimetry with dephosphorylated Aurora A (deP AurA); remark: listed apart in the source
Aurora A kinase [6] = target: T2, Aurora A kinase; experiment: as above; remark: listed apart in the source
Aurora A kinase [7] = target: T2, Aurora A kinase; experiment: method not stated; told in the isothermal titration calorimetry paragraph
Aurora A kinase [8] = target: T2, Aurora A kinase; experiment: isothermal titration calorimetry; Mb60 alone, not the sGFP fusion (FIG. 6C)
Aurora A kinase [9] = target: T2, Aurora A kinase; experiment: isothermal titration calorimetry with dephosphorylated Aurora A (deP AurA); design: dS: unit not given here; remark: listed apart in the source
Aurora A kinase [10] = target: T2, Aurora A kinase; experiment: isothermal titration calorimetry

Kd (Aurora A kinase [3]): 2600 nM
dH (Aurora A kinase [3]): -57.2 kJ/mol
dS (Aurora A kinase [3]): -84.9 J/mol*K
n (Aurora A kinase [3]): 1.06
Kd (Aurora A kinase [2]): 42 nM
B2: monobody Mb44 (designed binder)
chain: SVSSVPTKLEVVAATPTSLLISWDAPAVTVDFYVITYGETGGYSYPWQEFEVPGSKSTATISGLKPGVDYTITVYADYGQYFYSPISINYRT
notes: Monobody on a fibronectin type III (FN3) scaffold; also called AuroraA_44

Kd (Aurora A kinase [5]): 8.7 nM
dH (Aurora A kinase [5]): -67.4 kJ/mol
dS (Aurora A kinase [5]): -71.6 J/mol*K
n (Aurora A kinase [5]): 1.02
Kd (Aurora A kinase [2]): 16.7 nM
B4: monobody Mb2 (designed binder)
chain: SVSSVPTKLEVVAATPTSLLISWDAFGHQYEPVYYYRITYGETGGNSPVQEFTVPGYYSTATISGLKPGVDYTITVYAWYVDGSYSSPISINYRT
notes: Monobody on a fibronectin type III (FN3) scaffold; also called AuroraA_2
binding result (Y199H): no binding (tested: 2000 (axis unit not printed))

Kd (Aurora A kinase [6]): 175 µM
dH (Aurora A kinase [6]): -101 kJ/mol
dS (Aurora A kinase [6]): -210 J/mol*K
n (Aurora A kinase [6]): 0.92
Kd (Aurora A kinase [2]): 81 nM
B5: monobody Mb54 (designed binder)
chain: SVSSVPTKLEVVAATPTSLLISWDAQTYQMYDYVSYYRITYGETGGNSPVQEFTVPGYYSTATISGLKPGVDYTITVYAEGYYSSYSPISINYRT
notes: Monobody on a fibronectin type III (FN3) scaffold; also called AuroraA_54
binding result (Y199H): no binding (tested: 2000 (axis unit not printed))

Kd (Aurora A kinase [7]): 50 µM
B6: TPX2 (other)
chain: MSQVKSSYSYDAPSDFINFSSLDDEGDTQNIDSWFEEKANLENKL
notes: also called TPX2 polypeptide

Kd (Aurora A kinase [8]): ~1000 nM
Kd (Aurora A kinase [9]): 1200 nM
dH (Aurora A kinase [9]): -134 kJ/mol
dS (Aurora A kinase [9]): -334
n (Aurora A kinase [9]): 0.92
Kd (Aurora A kinase [2]): 25 nM
B7: monobody Mb60 (designed binder)
chain: SVSSVPTKLEVVAATPTSLLISWDAPAVTVVHYVITYGETGGNSPVQEFTVPGSKSTATISGLKPGVDYTITVYAIDFYWGSYSPISINYRT
notes: Monobody on a fibronectin type III (FN3) scaffold; also called AuroraA_60
binding result (Y199K): no binding (tested: 2000 (axis unit not printed))

The remaining lines, values behind:

B1: monobody Mb56 (designed binder)
chain: SVSSVPTKLEVVAATPTSLLISWDAMSDWYYWVDYYRITYGETGGNSPVQEFTVPGSYSTATISGLKPGVDYTITVYASDDVWGDYSPISINYRT
notes: Monobody on a fibronectin type III (FN3) scaffold; also called AuroraA_56
binding result (Y199K): no binding (tested: 2000 (axis unit not printed))
Kd (Aurora A kinase [1]): 163 nM
dH (Aurora A kinase [1]): -42.4 kJ/mol
dS (Aurora A kinase [1]): -29.1
n (Aurora A kinase [1]): 0.94
Kd (Aurora A kinase [2]): 60 nM

B3: monobody Mb51 (designed binder)
chain: SVSSVPTKLEVVAATPTSLLISWDAKPMSYEPVYYYRITYGETGGNSPVQEFTVPGYYSTATISGLKPGVDYTITVYADSMSSYYYSPISINYRT
notes: Monobody on a fibronectin type III (FN3) scaffold; also called AuroraA_51
binding result (Y199K): no binding (tested: 2000 (axis unit not printed))
Kd (Aurora A kinase [4]): 27.4 nM
dH (Aurora A kinase [4]): -38.1 kJ/mol
dS (Aurora A kinase [4]): -16.9 J/mol*K
n (Aurora A kinase [4]): 0.93
Kd (Aurora A kinase [2]): 6 nM

B8: monobody Mb60 fused to supercharged GFP (designed binder)
chain: B7 chain
notes: also called sGFP-Mb60; not shown: supercharged green fluorescent protein
Kd (Aurora A kinase [10]): ~9.9 µM
